{"source": "paper PMC9058210", "about": "(Nature chemical biology, 2022)", "biological_target": "the molecule itself", "assay": "crystal structure"}
{"protein": "SalC (enzyme, Salinispora tropica CNB440) MSEAVERNYDPGDVAIIGASCRFPGARNKEQYWDNLLHGREGVTFYAKDEIEVDETLINSPAYVRATGALDGYDEFDPAVFGVSDRMAAAMTPEHRVFLEASWEVMEDASYDPERVRGEVGVYASTNPQSAALYSSPPDWVSAGPEVMDRSNAWLPDTITSNVLYYLGLTGEAVTVTAVCSGFHYAVHLACQSLLLGQTDMAIAGGVMVRLPQRRGYLWEEGRILSRDGHCRPFDANGTGSVLASGVAVVLLKPLPQAVADRDHIYATVKGTAINNNGISAMAYGLAQPERLSACIAGAMQAGDVAPETVSMYEANGFGMPITDSLEVHAAHLAFGKQSGTCSIGAVKGNIGHAGVVAGGSGAVKAAFALYHRSLPPTINLTELNEEIDFPRTPFVPQLEPAAWQPECGIRRAGITALGGGGYNAHLVLEEPPRPVEREPENRRPRIVTLSALDDAAVSRQRAALSSWLAEHSDARLDDIAYSLNLGRKALPSRWAAVISTRDELLEVLSGDGKSGRVSRFGQERRADLARFRRTEDGLALGSGDEMRDVQALTELAAAWVQGERVNFEVLHADERSHRISLPNYPFARRRFWRTDW", "values": [{"measurement": "stoichiometry N", "result": 4}]}
